Measured values taken from US20260043041A1, “HSL PROTEIN, GENE, VECTOR, CELL, COMPOSITION AND USE THEREOF, AND METHOD FOR IMPROVING HERBICIDE RESISTANCE OF CROPS” (CENTRAL CHINA NORMAL UNIVERSITY, priority 2022, published 2026).
“Also recorded” adds a separate entry of the source.

How the values were obtained:
[1] = system: OsHSL1_F140H/L204F/F298L/I335A mutant T1 generation positive rice plants; assay: Herbicide resistance test, over-expression in rice (stem-leaf treatment); type: in vivo; conditions: 2 g/mu and 8 g/mu, after 23 days of treatment
Method: (§1) Successfully overexpressed OsHSL1_F140H/L204F/F298L/I335A mutants and OsHSL1 wild type TO generation tissue culture seedlings were selected, cultivated and harvested, and then sown to offspring population T1 generation rice plants, and positive over-expression rice plants were identified.
(§2) OsHSL1_F140H/L204F/F298L/I335A mutant T1 generation positive rice plants and OsHSL1 wild-type T1 generation positive rice plants at 3 weeks of seedling age were treated with different concentrations of methyl-benquitrione aqueous solution on the Stem leaves, and OsHSL1 wild-type T1 generation positive rice plants as a control. The resistance of mutant OsHSL1_F140H/L204F/F298L/I335A to methyl-benquitrione was tested, and the specific results were shown in FIG. 1.

[2] = system: OsHSL1 wild type T1 generation positive rice plants; assay: as above; type: in vivo; conditions: 2 g/mu and 8 g/mu
Method: as §1, §2

[3] = molecular target: T1, rice OsHSL1 (SEQ ID NO: 1) mutant OsHSL1_F140H/L204F/F298L/I335A (Oryza sativa, UniProt A0A7G1K9G4, F140H/F298L/I335A/L204F); assay: Enzyme kinetic parameters with HPPD inhibitors as substrate (HPLC); type: biochemical; conditions: compared with OsHSL1 wild type; close to the OsHIS1 wild type
T1 construct: isolated enzyme, HPLC assay
Excerpt: (§3) High Performance Liquid Chromatography (HPLC) was used to test OsHIS1 wild-type protein (the amino acid sequence of OsHIS1 wild-type is shown as SEQ ID NO 2, and the corresponding nucleotide sequence is shown as SEQ ID NO 21), the enzyme kinetic parameters of OsHSL1 wild-type protein and some OsHSL1 mutant proteins with higher reactivity and HPPD inhibitors, and the specific results are shown in Table 9-Table 12. […] Each sample was replicated three times. • e.

[4] = molecular target: T2, rice OsHSL1 (SEQ ID NO: 1) mutant OsHSL1_I335F (Oryza sativa, UniProt A0A7G1K9G4, I335F); assay: as above; type: biochemical; conditions: compared with OsHSL1 wild type
T2 construct: isolated enzyme, HPLC assay
Excerpt: as §3

[5] = type: biochemical; conditions: substrate topramezone 50 μM; 30° C.; 10 h; protein 0.5 mg/mL
Method: (§4) Each sample was replicated three times. • e.
(§5) Control: refers to the addition of inhibitors to the reaction system, but not the addition of enzymes, which is regarded as the substrate surplus when the inhibitor is not catalyzed.
(§6) Sample: in the enzyme reaction system, the same volume and the same concentration (50 μM) of the inhibitor was added, and the catalytic efficiency of the enzyme to the inhibitor was observed.
(§7) Catalytic efficiency=(1−(peak area of substrate in sample)/(peak area of substrate in control))×100%.

[6] = Catalytic activity of HSL proteins on HPPD inhibitors (HPLC, substrate consumption); type: biochemical; conditions: 30° C., 10 h, protein 0.5 mg/mL
Method: as §4, §5, §6, §7

[7] = system: T1 generation positive rice plants; assay: Herbicide resistance test of over-expression in rice (methyl-benquitrione stem-leaf treatment); type: in vivo; conditions: conclusion from FIG. 1
Method: as §1, §2
FIG. 1 is a graph showing the sensitivity of OsHSL1_F140H/L204F/F298L/I335A mutant T1 generation positive rice plants and OsHSL1 wild type T1 generation positive rice plants to the HPPD inhibitor methyl-benquitrione.

T2 sequence (A0A7G1K9G4 entry or part of it I335F): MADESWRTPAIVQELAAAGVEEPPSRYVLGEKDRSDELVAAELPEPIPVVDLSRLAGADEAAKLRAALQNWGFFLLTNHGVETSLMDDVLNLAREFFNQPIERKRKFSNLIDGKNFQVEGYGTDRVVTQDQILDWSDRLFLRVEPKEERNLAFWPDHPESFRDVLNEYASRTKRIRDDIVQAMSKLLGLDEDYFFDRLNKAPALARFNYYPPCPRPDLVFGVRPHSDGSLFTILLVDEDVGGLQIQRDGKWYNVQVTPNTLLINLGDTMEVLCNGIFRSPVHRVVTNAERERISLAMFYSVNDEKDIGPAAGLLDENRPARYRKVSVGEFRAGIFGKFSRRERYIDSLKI

Cc1ccccc1-n1c(=O)c2c(C)c(C(=O)C3=C(O)CCCC3=O)ccc2n(C)c1=O [methyl-benquitrione]
sensitivity (plant colour) [1]: basically keep normal green
albinism symptoms ([2]; after 16 days of treatment): almost all have albinism symptoms
albino symptoms ([2]; after 23 days of treatment): albino symptoms become very obvious
affinity and catalytic efficiency (in words) [3]: better affinity and catalytic efficiency

Cc1c(C(=O)c2cnn(C)c2O)ccc(S(C)(=O)=O)c1C1=NOCC1 [topramezone]
catalytic efficiency (in words) [4]: obviously superior

B1: OsHSL1_F140H/L204F/F298L/I335A: SEQ ID NO.1 with F140 to histidine, L204 to phenylalanine, F298 to leucine, I335 to alanine (protein)
chain: MADESWRTPAIVQELAAAGVEEPPSRYVLGEKDRSDELVAAELPEPIPVVDLSRLAGADEAAKLRAALQNWGFFLLTNHGVETSLMDDVLNLAREFFNQPIERKRKFSNLIDGKNFQVEGYGTDRVVTQDQILDWSDRLHLRVEPKEERNLAFWPDHPESFRDVLNEYASRTKRIRDDIVQAMSKLLGLDEDYFFDRLNKAPAFARFNYYPPCPRPDLVFGVRPHSDGSLFTILLVDEDVGGLQIQRDGKWYNVQVTPNTLLINLGDTMEVLCNGIFRSPVHRVVTNAERERISLAMLYSVNDEKDIGPAAGLLDENRPARYRKVSVGEFRAGIAGKFSRRERYIDSLKI
Catalytic efficiency (%) topramezone [5]: 4%
Catalytic efficiency (%) Compound A ([6]; substrate Compound A 50 μM): 97%
Catalytic efficiency (%) benzobicyclon technical ([6]; substrate benzobicyclon technical 50 μM): 100%
Catalytic efficiency (%) Mesotrione ([6]; substrate mesotrione 50 μM): 90%
Catalytic efficiency (%) methyl-benquitrione ([6]; substrate methyl-benquitrione 50 μM): 95%
Catalytic efficiency (%) pyraquinate technical ([6]; substrate pyraquinate technical 50 μM): 40%
Catalytic efficiency (%) tefuryltrione ([6]; substrate tefuryltrione 50 μM): 85%
Catalytic efficiency (%) tembotrione ([6]; substrate tembotrione 50 μM): 71%
resistance of over-expressing rice plants to methyl-benquitrione [7]: can improve the resistance; also recorded: obvious resistance
